Drawing on ChEMBL document CHEMBL2074002, “Functional analysis of a canalicular multispecific organic anion transporter cloned from rat liver” (J Biol Chem, 1998), this text covers Km for one protein.

Substrate in the data set: N[C@@H](CCC(=O)N[C@H](CSc1ccc([N+](=O)[O-])cc1[N+](=O)[O-])C(=O)NCC(=O)O)C(=O)O
Briefly: TP_TRANSPORTER: uptake in membrane vesicle from Mrp2-expressing NIH/3T3 cell. The class given is functional, cell membranes, NIH3T3.

B1: ATP-binding cassette sub-family C member 2 (Rattus norvegicus) (protein)
chain: MDKFCNSTFWDLSLLESPEADLPLCFEQTVLVWIPLGFLWLLAPWQLYSVYRSRTKRSSITKFYLAKQVFVVFLLILAAIDLSLALTEDTGQATVPPVRYTNPILYLCTWLLVLAVQHSRQWCVRKNSWFLSLFWILSVLCGVFQFQTLIRALLKDSKSNMAYSYLFFVSYGFQIVLLILTAFSGPSDSTQTPSVTASFLSSITFSWYDRTVLKGYKHPLTLEDVWDIDEGFKTRSVTSKFEAAMTKDLQKARQAFQRRLQKSQRKPEATLHGLNKKQSQSQDVLVLEEAKKKSEKTTKDYPKSWLIKSLFKTFHVVILKSFILKLIHDLLVFLNPQLLKLLIGFVKSSNSYVWFGYICAILMFAVTLIQSFCLQSYFQHCFVLGMCVRTTVMSSIYKKALTLSNLARKQYTIGETVNLMSVDSQKLMDATNYMQLVWSSVIQITLSIFFLWRELGPSILAGVGVMVLLIPVNGVLATKIRNIQVQNMKNKDKRLKIMNEILSGIKILKYFAWEPSFQEQVQGIRKKELKNLLRFGQLQSLLIFILQITPILVSVVTFSVYVLVDSANVLNAEKAFTSITLFNILRFPLSMLPMVTSSILQASVSVDRLERYLGGDDLDTSAIRRVSNFDKAVKFSEASFTWDPDLEATIQDVNLDIKPGQLVAVVGTVGSGKSSLVSAMLGEMENVHGHITIQGSTAYVPQQSWIQNGTIKDNILFGSEYNEKKYQQVLKACALLPDLEILPGGDMAEIGEKGINLSGGQKQRVSLARAAYQDADIYILDDPLSAVDAHVGKHIFNKVVGPNGLLAGKTRIFVTHGIHFLPQVDEIVVLGKGTILEKGSYRDLLDKKGVFARNWKTFMKHSGPEGEATVNNDSEAEDDDDGLIPTMEEIPEDAASLAMRRENSLRRTLSRSSRSSSRRGKSLKNSLKIKNVNVLKEKEKEVEGQKLIKKEFVETGKVKFSIYLKYLQAVGWWSILFIILFYGLNNVAFIGSNLWLSAWTSDSDNLNGTNNSSSHRDMRIGVFGALGLAQGICLLISTLWSIYACRNASKALHGQLLTNILRAPMRFFDTTPTGRIVNRFSGDISTVDDLLPQTLRSWMMCFFGIAGTLVMICMATPVFAIIIIPLSILYISVQVFYVATSRQLRRLDSVTKSPIYSHFSETVTGLPIIRAFEHQQRFLAWNEKQIDINQKCVFSWITSNRWLAIRLELVGNLVVFCSALLLVIYRKTLTGDVVGFVLSNALNITQTLNWLVRMTSEAETNIVAVERISEYINVENEAPWVTDKRPPADWPRHGEIQFNNYQVRYRPELDLVLKGITCNIKSGEKVGVVGRTGAGKSSLTNCLFRILESAGGQIIIDGIDVASIGLHDLRERLTIIPQDPILFSGSLRMNLDPFNKYSDEEVWRALELAHLRSFVSGLQLGLLSEVTEGGDNLSIGQRQLLCLGRAVLRKSKILVLDEATAAVDLETDSLIQTTIRKEFSQCTVITIAHRLHTIMDSDKIMVLDNGKIVEYGSPEELLSNRGSFYLMAKEAGIENVNHTEL
As a reminder, the Km is the substrate concentration at which the rate is half of its maximum. In the case of B1, the Km is 0.175 µM.
